Patent US8173596B2, “Prouroguanylin, and synthetic analogs or proteolytic cleavage products derived from it, as therapeutic and diagnostic agents for diseases involving salt and/or fluid homeostasis” (The University of North Carolina at Chapel Hill, priority 2004, dated 2012)
Entries after “also recorded” stand apart in the source; their conditions may differ.

Key:
anesthetized rats = test: Diuresis and natriuresis induced by infused native proUGn in anesthetized rats; assay type: in vivo, rat
Protocol: (§1) Experiments were performed with 200-250 g male Sprague Dawley rats (Charles River Laboratories, Wilmington, Mass., United States of America). Rat test diets were obtained from a commercial supplier (Harlan Teklad, Madison, Wis., United States of America). For some experiments, anephric animals were prepared by surgical acute ligation of the renal pedicles. As necessary, animals were anesthetized with Nembutal (60 mg/kg body weight ip).
Na, K, and fluid excretion: Na and K concentrations are analyzed on an IF model 943 flame photometer (Instrumentation Laboratory Company, Lexington, Mass., United States of America). Urine is collected from ureteric canulae or by the use of metabolic cages. Urine volume is determined gravimetrically.
Native proUGn is purified from rat small intestine. Animals are sacrificed by anesthetic overdose, and approximately 20 cm of proximal small intestine is removed. The tissue is cut longitudinally, rinsed with saline, and the mucosal layer is isolated by scraping with a microscope slide. Scraped material is snap-frozen on a metal plate chilled to −78.5° C., then homogenized in 50 mM HEPES, pH 7.4, containing protease inhibitor. The homogenate is cleared by centrifugation at 50,000×g, and the supernate is fractionated sequentially by HPLC on a MonoQ anion exchange column and a VYDAC C-18 reverse-phase column. The HPLC chromatogram of this second chromatography step is shown in FIG. 10a, with a Western blot of the individual HPLC fractions shown in the inset, confirming the presence of proUGn. The purified material was dried to remove the HPLC solvents and resuspended in physiological saline. Recovery is measured by quantitative proUGn immunoassay.
Native proUGn is infused for 60 min into a group of 5 anesthetized rats, the standard infusion containing approximately 180-pmol peptide. Given an estimated rat plasma volume of 10 mL, the infusion rate was approximately […]. Blood pressure, urine production, and sodium excretion were monitored for approximately 40 minutes prior to the infusion, during the infusion, and for approximately 50 minutes after the infusion to measure the effect of the proUGn on diuresis and natriuresis. For comparison, a control group of five rats was infused with regular saline, one rat was infused with a solution of proUGn that had been neutralized by incubation with antibodies 6910 and 6912, and one rat was infused with a solution containing STa at 5 μg/kg/hr.

GC-C = biological target: T1, GC-C (Homo sapiens, UniProt P25092); conditions: other reports (Hamra et al. 1996); cited from earlier work
T1 construct: endogenous in cells; host or cells: T84 cells

[1] = Kidney clearance and tissue fate of infused or bolus-injected 35S-proUGn; assay type: in vivo, rat
Protocol: as §1
Radioactive proUGn was prepared by coupled in vitro transcription/translation in the presence of ^35S-Cys and ^35S-Met from a cDNA template that encoded full-length proUGn (minus the signal peptide).
A solution containing radioactively-labeled r-proUGn was infused by iv into anesthetized rats for 60 min. The concentration of radioactivity in the plasma and the urine was measured via scintillation counting at timepoints throughout the infusion. […] At the end of the 60 min infusion, tissue samples were collected from the brain, thymus, lung, small intestine, skeletal muscle, spleen, heart, kidney, and liver and assayed for radioactivity by scintillation counting.
To measure the rate of kidney clearance of proUGn, plasma levels of ^35S-proUGn were monitored following bolus injection of the radiolabelled propeptide. Bolus injections (about 10^6 cpm) were given to groups of control (i.e., normal) rats and to anephric rats. At various timepoints after the injection, blood samples were removed and fractionated by HPLC. Radioactivity in each HPLC fraction was measured in a scintillation counter. […] Taken together, the results from these experiments indicate that the kidney appears to be the major route of clearance for proUGn.

[2] = HPLC analysis of proUGn metabolites in plasma and urine; assay type: in vivo, rat
Protocol: Unless otherwise stated, HPLC conditions for the detection and identification of proUGn and related peptides are as follows: Vydac 218TP™ C-18 reverse-phase column (Grace Vydac, Hesperica, Calif., United States of America); equilibration of the column with H2O with 0.1% TFA for 25 minutes, followed by a 30 minutes gradient from 0% acetonitrile (with 0.1% TFA) to 50% acetonitrile (with 0.1% TFA), 5 min wash with 100% acetonitrile (0.1% TFA).
Plasma samples were taken 2, 5, and 10 min after bolus injection of ^35S-proUGn (about 10^6 cpm) into the carotid artery (n=2 for each timepoint). Urine was collected for 30 min at the end of a 60 min arterial infusion of ^35S-proUGn (n=7). The cpm/μL in the infused material was approximately 100 times lower than the cpm/μL in the solution used for the bolus injection. Plasma and urine samples were applied to the HPLC column and eluted, with the radioactivity in each fraction measured in a scintillation counter.

[3] = steady iv infusion over 60 min, FIG. 8a

T1 sequence (P25092 24-1073): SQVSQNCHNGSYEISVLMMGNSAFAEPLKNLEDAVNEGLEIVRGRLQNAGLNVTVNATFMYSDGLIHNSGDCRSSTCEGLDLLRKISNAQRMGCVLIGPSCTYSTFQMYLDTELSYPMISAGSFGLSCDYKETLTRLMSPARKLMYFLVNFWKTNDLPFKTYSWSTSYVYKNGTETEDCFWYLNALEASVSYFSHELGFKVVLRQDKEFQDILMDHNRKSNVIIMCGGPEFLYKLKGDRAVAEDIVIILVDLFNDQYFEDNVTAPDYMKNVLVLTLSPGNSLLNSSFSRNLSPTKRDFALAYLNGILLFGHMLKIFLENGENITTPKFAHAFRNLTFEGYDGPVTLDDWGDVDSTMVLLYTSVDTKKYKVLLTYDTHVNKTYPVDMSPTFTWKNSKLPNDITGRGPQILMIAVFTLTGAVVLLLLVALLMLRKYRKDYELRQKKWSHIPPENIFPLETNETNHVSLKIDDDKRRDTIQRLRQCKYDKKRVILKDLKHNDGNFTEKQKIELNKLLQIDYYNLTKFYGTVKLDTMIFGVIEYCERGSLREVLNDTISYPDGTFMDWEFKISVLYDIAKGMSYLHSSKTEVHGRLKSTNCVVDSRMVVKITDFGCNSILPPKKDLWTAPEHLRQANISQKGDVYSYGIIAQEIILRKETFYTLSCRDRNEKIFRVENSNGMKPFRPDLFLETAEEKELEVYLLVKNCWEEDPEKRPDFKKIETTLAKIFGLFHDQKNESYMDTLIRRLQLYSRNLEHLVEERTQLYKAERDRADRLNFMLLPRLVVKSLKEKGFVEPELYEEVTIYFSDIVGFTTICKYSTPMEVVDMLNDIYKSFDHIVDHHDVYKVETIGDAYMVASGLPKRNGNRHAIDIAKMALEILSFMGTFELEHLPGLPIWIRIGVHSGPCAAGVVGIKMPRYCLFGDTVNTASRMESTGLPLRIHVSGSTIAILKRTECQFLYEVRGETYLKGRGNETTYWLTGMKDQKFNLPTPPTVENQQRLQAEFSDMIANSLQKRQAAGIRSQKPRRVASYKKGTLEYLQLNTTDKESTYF

| Molecule | sodium excretion following proUGn infusion (anesthetized rats; 60 min infusion of approximately 180 pmol peptide, after infusion) | sodium excretion (anesthetized rats; 60 min infusion, FIG. 10c) | urine flow (anesthetized rats; 60 min infusion, anesthetized rats, FIG. 10b) | onset of the response to proUGn (anesthetized rats; after beginning infusion) | duration of the response to proUGn (anesthetized rats; after terminating the infusion) | sodium excretion before proUGn infusion (anesthetized rats; baseline of the infused animals) | natriuretic response compared with responses reported in the literature for UGn18 (anesthetized rats; comparison with literature UGn18 infusion) | increase in urine production (anesthetized rats; infusing exogenous proUGn into the bloodstream) | activation of GC-C (GC-C) | clearance from plasma, control versus anephric rats ([1]; bolus injection about 10^6 cpm, FIG. 8c) | tissue distribution of radioactivity ([1]; end of 60 min infusion, brain, thymus, lung, small intestine, skeletal muscle, spleen, heart, kidney, liver, FIG. 8b) | plasma level of radioactivity [1, 3] | urine level of radioactivity [1, 3] | integrity in plasma (HPLC of radiolabelled species) ([2]; plasma 2, 5, 10 min after bolus injection, FIG. 9a) | radioactive species in urine (HPLC) ([2]; urine collected 30 min at end of 60 min infusion, FIG. 9b) |
| --- | --- | --- | --- | --- | --- | --- | --- | --- | --- | --- | --- | --- | --- | --- | --- |
| prouroguanylin (protein, listed as Rattus norvegicus, propeptide of UGn18) VYIKYHGFQVQLESVKKLNELEEKQMSDPQQQKSGLLPDVCYNPALPLDLQPVCASQEAASTFKALRTIATDECELCINVACTGC | 3200 nmol/min | mirrored the increase in urine flow rate | increase in urine flow | 20 to 40 min | more than several hours | 60 nmol/min | many times greater | ≤ 50 fold | inability |  |  |  |  |  |  |
| ^35S-proUGn: proUGn prepared by coupled in vitro transcription/translation in the presence of 35S-Cys and 35S-Met (protein) VYIKYHGFQVQLESVKKLNELEEKQMSDPQQQKSGLLPDVCYNPALPLDLQPVCASQEAASTFKALRTIATDECELCINVACTGC |  |  |  |  |  |  |  |  |  | cleared more quickly in the control animals; also recorded: cleared rapidly from the plasma of a normal animal | only the kidney samples contained significant levels of radioactivity; also recorded: specific activity of labeling in the kidney is greater than in any other tissue | remained steady; also recorded: stable plasma level of radioactivity | increased dramatically | appears to remain intact in plasma | at least two, and possibly three, proUGn-related products |
| proguanylin (protein, listed as Rattus norvegicus, propeptide of Gn15) MNAWLLSVLCLLGALAVLVEGVTVQDGDLSFPLESVKQLKHLREVQEPTLMSHKKFALRLPKPVAPELCSQSAFPEALRPLCEKPNAEEILQRLEAIAQDPNTCEICAYAACTGC |  |  |  |  |  |  |  |  | inability |  |  |  |  |  |  |
